Results reported in the supplement of paper PMC7877785.
± gives the uncertainty stated by the source.

Experiment: self-splicing fitness, log relative to wild type (ln ratio); higher = more splicing; Tetrahymena group I intron in knt gene, E. coli kanamycin selection, DiMSum; sequences stand for … in CUCUCU…GGAGGGAAAAGUUAUCAGGCAUGCACCUGGUAGCUAGUCUUUAAACCAAUAGAUUGCAUCGGUUUAAAAGGCAAGACCGUCAAAUUGCGGGAAAGGGGUCAACAGCCGUUCAGUACCAAGUCUCAGGGGAAACUUUGAGAUGGCCUUGCAAAGGGUAUGGUAAUAAGCUGACGGACAUGGUCCUAACCACGCAGCCAAGUCCUAAGUCAACAGAUCUUCUGUUGAUAUGGAUGCAGUUCACAGACUAAAUGUCGGUCGGGGAAGAUGUAUUCUUCUCAUAAGAUAUAGUCGGACCUCUCCUUAAUGGGAGCUAGCGGAUGAAGUGAUGCAACACUGGAGCCGCUGGGAACUAAUUUGUAUGCGAAAGUAUAUUGAUUAGUUUUGGAGUACUCGUGGUCG
Procedure, shortened: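 DiMSum derived fitness as the error-weighted combination of fold changes across replicates, kanamycin versus no kanamycin, normalised to wild type. E. coli BL21(DE3) held the library, which randomised all eight P1ex-region intron nucleotides within the knt kanamycin-resistance gene on pET-22b(+). Six replicate transformations grew overnight at 37°C or 30°C on LB agar with or without 25 μg/mL kanamycin, also containing 100 μg/mL carbenicillin, 50 μM IPTG and 0.2% rhamnose, and pooled colonies were amplicon-sequenced on an Illumina HiSeq 2500.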

Sequence | self-splicing fitness (ln) (30 °C) | self-splicing fitness (ln) (37 °C)
CUUGAGCAAUAUUACGGUAU | -3.17 ± 0.2 | -2.65 ± 0.26
CUCUAGCAAUAUUACGCUCG | -3.05 ± 0.25 | -1.68 ± 0.23
CGGCAGCAAUAUUACGCCUG | -0.88 ± 0.24 | -1.89 ± 0.23
ACGAAGCAAUAUUACGCUUA | -1.81 ± 0.087 | -0.374 ± 0.083
GAAAAGCAAUAUUACGAGUC | -2.16 ± 0.15 | -0.233 ± 0.1
GUCAAGCAAUAUUACGCGAA | -1.88 ± 0.085 | -0.888 ± 0.091
GGCAAGCAAUAUUACGUGUU | -1.96 ± 0.059 | -1.83 ± 0.076
AGGGAGCAAUAUUACGGACA | -2.85 ± 0.35 | -2.56 ± 0.29
UUAUAGCAAUAUUACGUUAG | -1.1 ± 0.12 | -0.717 ± 0.14
GAUGAGCAAUAUUACGGCGA | -2.19 ± 0.17 | -1.38 ± 0.13
AAAAAGCAAUAUUACGUCCG | -1.05 ± 0.11 | -0.195 ± 0.13
UCAUAGCAAUAUUACGUCAA | -2.44 ± 0.32 | –
GAGCAGCAAUAUUACGUUAA | -3.53 ± 0.27 | -0.69 ± 0.13
CUGGAGCAAUAUUACGAACA | -2.85 ± 0.42 | -1.64 ± 0.48
GAUUAGCAAUAUUACGUCAA | -2.6 ± 0.41 | -0.886 ± 0.22
AUAAAGCAAUAUUACGGGAA | -1.08 ± 0.097 | -0.426 ± 0.14
UGGUAGCAAUAUUACGAGGU | -2.63 ± 0.45 | -2.6 ± 0.35
GGAAAGCAAUAUUACGGAGC | -1.43 ± 0.17 | -1.49 ± 0.2
CGUGAGCAAUAUUACGGGCG | -2.93 ± 0.46 | -1.63 ± 0.43
UUGGAGCAAUAUUACGAAGA | -2.83 ± 0.41 | -2.53 ± 0.49
UAUCAGCAAUAUUACGCGUG | -0.43 ± 0.062 | -0.319 ± 0.075
AGAGAGCAAUAUUACGAAUC | -3.68 ± 0.47 | -2.06 ± 0.37
AGUCAGCAAUAUUACGCGGC | -3.02 ± 0.29 | –
UGGUAGCAAUAUUACGCUCG | 0.322 ± 0.17 | 0.532 ± 0.25

Sequence | self-splicing fitness (ln) (30 °C) | self-splicing fitness (ln) (37 °C)
AUAUAGCAAUAUUACGUCAU | -2.43 ± 0.14 | -1.15 ± 0.14
AAUGAGCAAUAUUACGCGUG | -2.11 ± 0.11 | -0.949 ± 0.1
GAUAAGCAAUAUUACGAUCA | -1.33 ± 0.1 | -0.134 ± 0.1
CUGUAGCAAUAUUACGACGC | -2.3 ± 0.35 | -2.79 ± 0.27
CGCCAGCAAUAUUACGAGAU | -3.69 ± 0.18 | -2.04 ± 0.17
GUCCAGCAAUAUUACGCACU | -1.58 ± 0.082 | 0.818 ± 0.11
ACUUAGCAAUAUUACGUGCC | -0.96 ± 0.13 | -1.4 ± 0.15
UGCAAGCAAUAUUACGUUUU | -4.29 ± 0.16 | -3.33 ± 0.15
CUCGAGCAAUAUUACGACUG | -1.28 ± 0.1 | -0.299 ± 0.15
AUGCAGCAAUAUUACGUGCU | -2.52 ± 0.1 | -1.9 ± 0.098
UGCGAGCAAUAUUACGUAUA | -2.89 ± 0.25 | -0.733 ± 0.22
UUGAAGCAAUAUUACGAUAU | -1.97 ± 0.075 | -1.03 ± 0.1
UCUCAGCAAUAUUACGUUAA | -2.79 ± 0.19 | -2.26 ± 0.17
GUCAAGCAAUAUUACGACUA | -3.5 ± 0.18 | -2.03 ± 0.12
GAUCAGCAAUAUUACGACGU | 0.142 ± 0.076 | 0.682 ± 0.089
GUGAAGCAAUAUUACGGAGG | -2.3 ± 0.23 | -2.49 ± 0.41
GCAUAGCAAUAUUACGUUGC | -3.65 ± 0.21 | -1.72 ± 0.21
UAAAAGCAAUAUUACGGUCC | -2.84 ± 0.17 | -2.03 ± 0.21
UUCUAGCAAUAUUACGCGGU | -2.74 ± 0.2 | -0.435 ± 0.24
UCCCAGCAAUAUUACGCAUU | -2.93 ± 0.076 | -1.58 ± 0.082
CGAGAGCAAUAUUACGUGAA | -3.24 ± 0.2 | -2.44 ± 0.29
GACUAGCAAUAUUACGAUUG | -2.2 ± 0.087 | -2.14 ± 0.15
AGCGAGCAAUAUUACGGUUC | -2.18 ± 0.24 | -2.32 ± 0.3
AAACAGCAAUAUUACGGAGC | -3.7 ± 0.28 | -2.75 ± 0.22
